# Reference: the supplement of paper PMC10567573
# B1: RAB22A (parent)
# chain: FVEDSFDPNINPTIGASFMTKTVQ
# Variants of: B1
# Test: protein stability index of a GFP-peptide fusion (GPS, HEK-293T) (PSI 1-6); higher = more stable
# Settings: c terminus: a fixed tail appended
# 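Further: lentivirally expressed fusions sorted by FACS into six bins by GFP to DsRed ratio, PSI derived from sequencing read proportions per bin multiplied by bin number.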
row,Variant,protein stability index
1,N11T,2.4
2,N11P,2.43
3,N11R,1.75
4,N11K,2.47
5,N11G,2.07
6,N11W,2.41
7,N11H,1.85
8,N11Y,2.16
9,N11A,2.42
10,N11L,1.85
11,N11I,2.23
12,N11D,2.56
13,N11F,1.82
14,V23M,1.98
15,V23I,2.37
16,V23W,2.5
17,V23P,2.94
18,V23T,2.78
19,V23F,1.79
20,V23H,2.5
21,V23S,2.66
22,V23N,2.44
23,V23E,3.24
24,V23G,2.56

row,Variant,protein stability index
1,V23Q,2.39
2,V23A,2.43
3,D4C,1.66
4,D4M,2.23
5,D4E,2.52
6,D4H,1.36
7,D4I,3.06
8,D4N,2.23
9,D4L,2.38
10,D4K,1.52
11,T20I,1.87
12,T20F,1.85
13,T20H,2.34
14,T20R,2.12
15,T20A,2.14
16,T20V,2.23
17,T20N,2.31
18,T20S,2.06
19,T20D,2.52
20,T20P,2.29
21,T20Y,1.86
22,T20G,2.58
23,T20Q,2.24
24,T20L,1.66

row,Variant,protein stability index
1,T20E,2.39
2,T20M,2.22
3,Q24N,2.28
4,Q24F,1.49
5,Q24P,2.45
6,Q24S,2.82
7,Q24R,2.38
8,Q24T,2.01
9,Q24I,1.55
10,Q24C,1.89
11,Q24D,2.56
12,Q24K,2.15
13,Q24H,2.1
14,Q24A,2.11
15,Q24L,2.19
16,E3N,1.96
17,E3P,2.95
18,E3Q,1.75
19,E3V,1.75
20,E3T,1.57
21,E3G,1.49
22,E3W,1.72
23,E3S,2.8
24,E3D,2.49

row,Variant,protein stability index
1,E3C,1.59
2,E3I,1.88
3,E3R,2.54
4,E3H,2.26
5,E3L,1.78
6,I10E,3.02
7,I10C,2.14
8,I10M,1.99
9,I10N,2.73
10,I10R,2.1
11,I10L,2.14
12,I10Q,2.81
13,I10K,2.5
14,I10A,2.48
15,I10P,2.57
16,I10D,2.93
17,I10F,2.2
18,I10T,2.83
19,I10Y,2.25
20,I10V,2.21
21,I10H,2.48
22,I10W,1.93
23,G15C,2.03
24,G15N,2.41

row,Variant,protein stability index
1,G15Y,1.9
2,G15F,2.33
3,G15T,2.22
4,G15V,1.87
5,G15H,2.08
6,G15K,2.1
7,G15R,1.92
8,G15W,1.85
9,G15A,2.46
10,G15E,2.86
11,G15Q,2.38
12,G15I,1.66
13,G15S,2.4
14,G15L,2.06
15,T13A,2.39
16,T13W,3.05
17,T13Y,1.73
18,T13K,2.29
19,T13M,1.91
20,T13H,2.31
21,T13C,1.79
22,T13D,2.71
23,T13V,2.29
24,T13R,1.93

row,Variant,protein stability index
1,T13L,2.21
2,T13E,2.52
3,T13S,2.31
4,T13P,2.67
5,A16M,1.75
6,A16K,1.97
7,A16I,2.11
8,A16F,2.07
9,A16L,1.81
10,A16C,1.8
11,A16S,2.86
12,A16V,1.81
13,A16H,2.11
14,A16E,3.38
15,A16P,2.54
16,A16D,2.55
17,A16N,2.74
18,A16Y,1.95
19,A16Q,2.61
20,T22G,2.25
21,T22N,2.25
22,T22F,2.02
23,T22C,2.35
24,T22S,2.26

row,Variant,protein stability index
1,T22I,1.6
2,T22D,2.85
3,T22A,2.43
4,T22E,2.91
5,T22Q,2.45
6,T22V,2.2
7,T22L,1.78
8,T22W,1.23
9,V2L,3.29
10,V2P,4.33
11,V2Y,3.19
12,V2R,3.48
13,V2W,2.51
14,V2E,3.95
15,V2Q,3.8
16,V2G,3.77
17,V2D,4.03
18,V2I,2.81
19,V2C,3.14
20,V2T,3.68
21,V2K,3.69
22,V2N,3.62
23,S17G,2.31
24,S17D,2.53

row,Variant,protein stability index
1,S17C,2.04
2,S17F,2.14
3,S17W,1.96
4,S17Q,2.6
5,S17N,2.28
6,S17Y,1.82
7,S17P,2.49
8,S17H,2.35
9,S17M,1.74
10,S17A,2.18
11,S17K,2.29
12,S17E,2.66
13,S17T,2.17
14,S5F,2.92
15,S5E,3.63
16,S5A,2.16
17,S5Y,1.98
18,S5V,1.89
19,S5G,2.08
20,S5H,1.74
21,S5M,1.99
22,S5C,2.03
23,S5Q,2.65
24,S5W,1.52

row,Variant,protein stability index
1,S5N,2.64
2,S5T,2.34
3,S5L,1.97
4,S5K,2.1
5,S5I,2.18
6,S5R,1.93
7,M19D,3.24
8,M19C,2.66
9,M19W,3.23
10,M19P,2.62
11,M19V,2.29
12,M19N,2.99
13,M19F,1.73
14,M19Y,2.08
15,M19E,3.36
16,M19A,3.11
17,M19K,2.1
18,M19H,2.12
19,M19R,2.46
20,M19L,2.22
21,F18L,2.56
22,F18M,2.65
23,F18R,2.83
24,F18T,3.15

row,Variant,protein stability index
1,F18E,3.37
2,F18D,3.45
3,F18W,2.08
4,F18H,3.24
5,F18G,3.35
6,F18P,2.98
7,F18C,3.17
8,F18V,3.07
9,F18A,3.22
10,F18K,2.79
11,P8I,1.67
12,P8L,2.1
13,P8S,2.17
14,P8W,2.65
15,P8F,2.94
16,P8V,2.27
17,P8E,2.7
18,P8Q,2.26
19,P8G,2.52
20,P8M,2.06
21,P8Y,1.85
22,P8A,2.33
23,P8D,2.76
24,F1C,3.75

row,Variant,protein stability index
1,F1V,3.79
2,F1Y,2.91
3,F1K,4.2
4,F1Q,4.25
5,F1H,4.25
6,F1E,4.66
7,F1W,3.41
8,F1P,4.42
9,F1N,4.44
10,F1R,4.24
11,F1G,4.4
12,F1D,4.45
13,F1A,4.1
14,F6D,3.85
15,F6P,2.74
16,F6I,2.56
17,F6R,2.36
18,F6Y,2.02
19,F6M,2.69
20,F6Q,2.88
21,F6N,2.9
22,F6E,4.08
23,F6G,3.27
24,F6A,2.83

row,Variant,protein stability index
1,F6C,2.67
2,F6T,2.89
3,F6K,2.71
4,F6W,1.76
5,F6H,2.58
6,N9Q,2.1
7,N9T,2.26
8,N9Y,1.72
9,N9E,2.47
10,N9I,2.23
11,N9D,2.73
12,N9K,1.88
13,N9H,2.22
14,N9V,2.04
15,N9A,2.25
16,N9W,2.65
17,N9G,2.78
18,N9C,2.08
19,N9F,1.92
20,I14D,3.19
21,I14M,2.55
22,I14C,2.01
23,I14K,2.29
24,I14S,2.46

row,Variant,protein stability index
1,I14R,2.14
2,I14Q,2.78
3,I14F,2.05
4,I14Y,2.23
5,I14T,2.78
6,I14A,2.07
7,P12T,2.25
8,P12A,2.13
9,P12R,1.81
10,P12G,2.29
11,P12D,2.49
12,P12Q,2.45
13,P12Y,2.37
14,P12L,1.85
15,P12N,2.15
16,P12S,2.4
17,P12M,1.89
18,P12V,2.18
19,P12W,2.08
20,K21A,2.03
21,K21P,2.74
22,K21Y,1.93
23,K21N,2.51
24,K21W,2.44

row,Variant,protein stability index
1,K21D,2.87
2,K21R,2.19
3,K21E,2.67
4,K21H,2.08
5,K21S,2.11
6,K21F,2.38
7,K21V,1.89
8,K21C,1.56
9,K21L,2.24
10,D7Y,1.67
11,D7H,2
12,D7W,3.07
13,D7I,2
14,D7L,2.15
15,D7A,1.96
16,D7V,1.94
17,D7T,2.15
18,D7S,1.92
19,D7E,2.36
20,D7C,1.98
21,D7Q,1.98
22,D7K,2.09
